# Measured values as given in patent US20220175781A1, “CD40L COMPOSITIONS AND METHODS FOR TUNABLE REGULATION” (Obsidian Therapeutics, Inc., priority 2019, published 2022).
# B1: OT-001661: constitutively expressed full length CD40L construct (protein)
# chain: MHMIETYNQTSPRSAATGLPISMKIFMYLLTVFLITQMIGSALFAVYLHRRLDKIEDERNLHEDFVFMKTIQRCNTGERSLSLLNCEEIKSQFEGFVKDIMLNKEETKKENSFEMQKGDQNPQIAAHVISEASSKTTSVLQWAEKGYYTMSNNLVTLENGKQLTVKRQGLYYIYAQVTFCSNREASSQAPFIASLCLKSPGRFERILLRAANTHSSAKPCGQQSIHLGGVFELQPGASVFVNVTDPSQVSHGTGFTSFGLLKL
# B2: OT-001666 (Met; ER (305-549 of WT, L384M, N413D, M421G, G521R, Y537S); Histidine; CD40L; stop) (ligand)
# chain: MSLALSLTADQMVSALLDAEPPILYSEYDPTRPFSEASMMGLLTNLADRELVHMINWAKRVPGFVDLTLHDQVHLLECAWMEILMIGLVWRSMEHPGKLLFAPNLLLDRDQGKCVEGGVEIFDMLLATSSRFRMMNLQGEEFVCLKSIILLNSGVYTFLSSTLKSLEEKDHIHRVLDKITDTLIHLMAKAGLTLQQQHQRLAQLLLILSHIRHMSNKRMEHLYSMKCKNVVPLSDLLLEMLDAHRLHMIETYNQTSPRSAATGLPISMKIFMYLLTVFLITQMIGSALFAVYLHRRLDKIEDERNLHEDFVFMKTIQRCNTGERSLSLLNCEEIKSQFEGFVKDIMLNKEETKKENSFEMQKGDQNPQIAAHVISEASSKTTSVLQWAEKGYYTMSNNLVTLENGKQLTVKRQGLYYIYAQVTFCSNREASSQAPFIASLCLKSPGRFERILLRAANTHSSAKPCGQQSIHLGGVFELQPGASVFVNVTDPSQVSHGTGFTSFGLLKL
# Experiments:
# Nalm6-luc = Nalm6-luc tumor model, Bioluminescence Intensity (BLI); format: in vivo, mice; conditions: CD40L only T cells, no CAR+ number
# Method: Increased expression of CD40L on CD19 positive CART cells may increase the efficacy of CAR+ T cells in vivo. To test this, 8-week old mice were injected with Nalm6-luc (1 million per mouse). On day 6, Nalm6 tumor burden was measured and mice were grouped to ensure that all groups had similar tumor sizes. Body weight and Bioluminescence Intensity (BLI) were measured twice a week. Blood and plasma were also collected for cytokine analysis, CD40L and IL12.
# Jurkat cells = experiment: CD40L shedding ELISA of supernatant, Jurkat cells with or without CD40-Fc receptor; format: cell-based; set-up: CD40L levels in supernatant: unit not given here; conditions: 6 hours
# Method: Sheddases e.g. ADAM10/17 present in the tumor microenvironment can cleave CD40L thereby preventing the successful activation of CD40 by CD40L. […] OT-001669 which has a deletion of amino acids 1-13 of CD40L was designed to reduce internalization and OT-001668 which has a deletion of amino acids 110-116 of CD40L was designed to remove the ADAM10/17 sites. Jurkat cells stably expressing the full length construct OT-001661, OT-001669, or OT-001668 were cultured for 6 hours with 1.25 μg/ml recombinant human (h) or mouse (m) CD40-Fc receptor or left untreated and tested using an ELISA assay (Table 15).
# [1] = tested on: T cells (CD4 and CD8 positive); experiment: Bazedoxifene dose response, CD40L MFI in CD4 and CD8 positive T cells (day 4, freeze/thaw, restimulation); format: cell-based
# Method: Dose response with Bazedoxifene in T cells were conducted for OT-001966, OT-001967, OT-001666. Expression of CD40L was measured at (a) day 4 after transduction, (b) after freezing and thawing the cells or (c) after freezing and thawing the cells followed by restimulation with CD3/CD28 beads. The CD40L MFI (median fluorescence intensity) within CD4 and CD8 positive subpopulations is shown in Table 34 and Table 35 respectively.
molecule,measurement,setting,value
B1,Average BLI values,Nalm6-luc; Day 6 (before T cell injection on day 7),2.04E+06
same,Average BLI values,Nalm6-luc; Day 13,2.69E+08
same,Average BLI values,Nalm6-luc; Day 20,2.52E+09
same,Average BLI values,Nalm6-luc; Day 25,5.99E+09
same,Average BLI values,Nalm6-luc; Day 28,1.04E+10
same,CD40L levels in supernatant,Jurkat cells; 1.25 μg/ml hCD40-Fc,3599.72
same,CD40L levels in supernatant,Jurkat cells; 1.25 μg/ml mCD40-Fc,2589.21
same,CD40L levels in supernatant,Jurkat cells; Untreated,1382.06
B2,CD40L expression (MFI),"[1]; CD4+ cells, Day 4, Bazedoxifene 0.01 nM",372
same,CD40L expression (MFI),"[1]; CD4+ cells, Day 4, Bazedoxifene 0.1 nM",420
same,CD40L expression (MFI),"[1]; CD4+ cells, Day 4, Bazedoxifene 1 nM",427
same,CD40L expression (MFI),"[1]; CD4+ cells, Day 4, Bazedoxifene 10 nM",476
same,CD40L expression (MFI),"[1]; CD4+ cells, Day 4, Bazedoxifene 100 nM",732
same,CD40L expression (MFI),"[1]; CD4+ cells, Day 4, Bazedoxifene 1000 nM",1397
same,CD40L expression (MFI),"[1]; CD4+ cells, Day 4, Bazedoxifene 10000 nM",1274
same,CD40L expression (MFI),"[1]; CD4+ cells, Post Thaw, Bazedoxifene 0.01 nM",134
same,CD40L expression (MFI),"[1]; CD4+ cells, Post Thaw, Bazedoxifene 0.1 nM",138
same,CD40L expression (MFI),"[1]; CD4+ cells, Post Thaw, Bazedoxifene 1 nM",145
same,CD40L expression (MFI),"[1]; CD4+ cells, Post Thaw, Bazedoxifene 10 nM",162
same,CD40L expression (MFI),"[1]; CD4+ cells, Post Thaw, Bazedoxifene 100 nM",208
same,CD40L expression (MFI),"[1]; CD4+ cells, Post Thaw, Bazedoxifene 1000 nM",241
same,CD40L expression (MFI),"[1]; CD4+ cells, Post Thaw, Bazedoxifene 10000 nM",537
same,CD40L expression (MFI),"[1]; CD4+ cells, Restim, Bazedoxifene 0.01 nM",592
same,CD40L expression (MFI),"[1]; CD4+ cells, Restim, Bazedoxifene 0.1 nM",658
same,CD40L expression (MFI),"[1]; CD4+ cells, Restim, Bazedoxifene 1 nM",682
same,CD40L expression (MFI),"[1]; CD4+ cells, Restim, Bazedoxifene 10 nM",658
same,CD40L expression (MFI),"[1]; CD4+ cells, Restim, Bazedoxifene 100 nM",953
same,CD40L expression (MFI),"[1]; CD4+ cells, Restim, Bazedoxifene 1000 nM",1688
same,CD40L expression (MFI),"[1]; CD4+ cells, Restim, Bazedoxifene 10000 nM",1577
same,CD40L expression (MFI),"[1]; CD8+ cells, Day 4, Bazedoxifene 0.01 nM",165
same,CD40L expression (MFI),"[1]; CD8+ cells, Day 4, Bazedoxifene 0.1 nM",171
same,CD40L expression (MFI),"[1]; CD8+ cells, Day 4, Bazedoxifene 1 nM",172
same,CD40L expression (MFI),"[1]; CD8+ cells, Day 4, Bazedoxifene 10 nM",176
same,CD40L expression (MFI),"[1]; CD8+ cells, Day 4, Bazedoxifene 100 nM",313
same,CD40L expression (MFI),"[1]; CD8+ cells, Day 4, Bazedoxifene 1000 nM",601
same,CD40L expression (MFI),"[1]; CD8+ cells, Day 4, Bazedoxifene 10000 nM",404
same,CD40L expression (MFI),"[1]; CD8+ cells, Post Thaw, Bazedoxifene 0.01 nM",103
same,CD40L expression (MFI),"[1]; CD8+ cells, Post Thaw, Bazedoxifene 0.1 nM",105
same,CD40L expression (MFI),"[1]; CD8+ cells, Post Thaw, Bazedoxifene 1 nM",107
same,CD40L expression (MFI),"[1]; CD8+ cells, Post Thaw, Bazedoxifene 10 nM",117
same,CD40L expression (MFI),"[1]; CD8+ cells, Post Thaw, Bazedoxifene 100 nM",170
same,CD40L expression (MFI),"[1]; CD8+ cells, Post Thaw, Bazedoxifene 1000 nM",213
same,CD40L expression (MFI),"[1]; CD8+ cells, Post Thaw, Bazedoxifene 10000 nM",326
same,CD40L expression (MFI),"[1]; CD8+ cells, Restim, Bazedoxifene 0.01 nM",238
same,CD40L expression (MFI),"[1]; CD8+ cells, Restim, Bazedoxifene 0.1 nM",244
same,CD40L expression (MFI),"[1]; CD8+ cells, Restim, Bazedoxifene 1 nM",263
same,CD40L expression (MFI),"[1]; CD8+ cells, Restim, Bazedoxifene 10 nM",253
same,CD40L expression (MFI),"[1]; CD8+ cells, Restim, Bazedoxifene 100 nM",354
same,CD40L expression (MFI),"[1]; CD8+ cells, Restim, Bazedoxifene 1000 nM",567
same,CD40L expression (MFI),"[1]; CD8+ cells, Restim, Bazedoxifene 10000 nM",458
